Measured values published in patent US20120100161A1 (DEUTSCHES KREBSFORSCHUNGSZENTRUM, published 2012).

Target: T1, Epithelial cell adhesion molecule (EpCAM, CD326) (human, UniProt P16422 24-314)
T1 construct: whole, on cells; Endogenous EpCAM on carcinoma cell lines; also called EpCAM antigen
T1 sequence (looked up): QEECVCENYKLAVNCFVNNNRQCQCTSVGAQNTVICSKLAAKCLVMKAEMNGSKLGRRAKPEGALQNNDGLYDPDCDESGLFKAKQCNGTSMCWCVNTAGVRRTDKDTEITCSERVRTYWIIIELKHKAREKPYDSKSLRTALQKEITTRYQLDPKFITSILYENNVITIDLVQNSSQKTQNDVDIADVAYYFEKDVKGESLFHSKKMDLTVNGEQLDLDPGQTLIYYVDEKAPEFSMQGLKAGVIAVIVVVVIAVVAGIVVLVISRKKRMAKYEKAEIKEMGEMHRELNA
Assay: binding to EpCAM-expressing cells; method not stated

B1: chimeric antibody huHEA125 (antibody, human IgG1, kappa)
heavy: not shown
light: DILLTQSPAILSVSPGERVSFSCRASQSIGISLHWYQQRPSDSPRLLIKYASESISGIPSRFSGSGSGTDFTLSINSVESEDIADYYCQQSNIWPTTFGAGTKLELKRTVAAPSVFIFPPSDEQLKSGTASVVCLLNNFYPREAKVQWKVDNALQSGNSQESVTEQDSKDSTYSLSSTLTLSKADYEKHKVYACEVTHQGLSSPVTKSFNRGEC
notes: Mouse HEA125 variable domains on human kappa and human IgG1 constant regions; also called unmodified huHEA125 antibody; non-conjugated huHEA125 antibody
  Kd: 2.2 nM
